B1: COV2-2096 (antibody, V domains shown)
VH: QVQLVQSGAEVKKPGASVKVSCKASGYTFGSFDINWVRQATGQGLEWMGRMNSNSGNTAYAQKFQGRVTMTRDTSTNTAYMELSSLRSEDTAMYYCARMRSGWPTHGRPDDFWGRGTLVTVSS
VL: QSVLTQAPSASGTPGQRVTISCSGSNSNIGSYTINWYQQLPGTAPKLLIYGNDQRTSGVPDRFSGSKFGTSASLAISGLQSEDENNYYCAVWDDSLNGLVFGGGTKLTVL
B2: COV2-2165 (antibody, V domains shown)
VH: EVQLVESGGGLVQPGGSLRLSCAASGLTVRSNYMTWVRQTPGKGLEWVSVIYSGGSTFYADSVKGRFTISRDNSKNTVYLQMNSLRAEDTAVYYCARDLVTYGLDVWGQGTTVTVSS
VL: DIQLTQSPSFLSASVGDRVTITCRASQGISNYLAWYQQKPGTAPNLLIYAASTLQSGVPSRFSGSGSGTEFTLTISSLQPEDFATYYCQLLNSHPLTFGQGTRLEIK
B3: COV2-2391 (antibody, V domains shown)
VH: B1 VH
VL: B1 VL
B4: COV2-2952 (antibody, V domains shown)
VH: B2 VH
VL: B2 VL
B5: COV2-2130 (antibody, V domains shown)
VH: EVQLVESGGGLVKPGGSLRLSCAASGFTFRDVWMSWVRQAPGKGLEWVGRIKSKIDGGTTDYAAPVKGRFTISRDDSKNTLYLQMNSLKTEDTAVYYCTTAGSYYYDTVGPGLPEGKFDYWGQGTLVTVSS
VL: not shown

Each binder was assayed against SARS-CoV-2 S receptor-binding domain (SRBD), residues 319-541 (SARS-CoV-2), P0DTC2 (assay: ELISA on coated antigen). Conditions: remark: other sources report otherwise.

First: B1
Second: B2
The EC50 of the first is 1.7-fold higher: 1 ng/mL for the first, 0.6 ng/mL for the second.

What follows are binders tested against SARS-CoV-2 RBD (Table A) (SARS-CoV-2), P0DTC2 (assay: ELISA, purified IgG). Conditions: remark: other sources report otherwise.

Going from B3 to B1, the ELISA OD 450 nm rises from 3.65 OD 450 nm to 4.3 OD 450 nm.

Going from B4 to B2, the ELISA OD 450 nm rises from 3.55 OD 450 nm to 4.2 OD 450 nm.

The binders below were run against SARS-CoV Spike trimer (Table A) (SARS-CoV), P59594 (assay: ELISA, purified IgG). Conditions: remark: other sources report otherwise.

First: B3
Second: B1
The ELISA OD 450 nm of the first is lower: 0.1 OD 450 nm for the first, 0.11 OD 450 nm for the second.

First: B4
Second: B2
The ELISA OD 450 nm of the first is lower: 0.15 OD 450 nm for the first, 0.17 OD 450 nm for the second.

Work on B5 yielded an ELISA OD 450 nm of 0.1 OD 450 nm.
